Values joined by “and” are separate entries in the source; they are usually repeats but may differ in a detail not shown here. Identical values can stand only once.
Experiments:
[1] = target: T1, GST-GRIP 1 PDZ domain 7 (Homo sapiens (Human)), Q9Y3R0; assay: G' assay; also: key of the grades not given here
T1 chain: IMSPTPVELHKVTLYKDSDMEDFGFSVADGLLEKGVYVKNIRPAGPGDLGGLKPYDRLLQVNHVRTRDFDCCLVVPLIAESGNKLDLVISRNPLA

[2] = target: T2, GST-KIAA0382 PDZ domain 1 (Canis lupus familiaris (Dog) (Canis familiaris)), A0A8I3; assay: G' assay; also: key of the grades not given here
T2 chain: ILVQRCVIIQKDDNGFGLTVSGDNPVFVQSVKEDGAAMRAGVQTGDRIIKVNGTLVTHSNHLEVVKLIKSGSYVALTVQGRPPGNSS

[3] = target: T3, GST-KIAA0807(S) PDZ domain 1 (Homo sapiens (Human)), Q6P0Q8; assay: G' assay; also: key of the grades not given here
T3 chain: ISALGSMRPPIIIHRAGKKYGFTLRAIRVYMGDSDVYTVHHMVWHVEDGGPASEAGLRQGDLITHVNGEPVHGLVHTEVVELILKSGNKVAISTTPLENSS

[4] = target: T4, GST-KIAA1526 PDZ domain 1 (Homo sapiens (Human)), Q9P202; assay: G' assay; also: key of the grades not given here
T4 chain: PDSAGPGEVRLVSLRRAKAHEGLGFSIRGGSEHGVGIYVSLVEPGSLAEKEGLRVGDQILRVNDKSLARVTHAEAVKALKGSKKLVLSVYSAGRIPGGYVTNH

[5] = target: T5, GST-KIAA1719 PDZ domain 6 (Homo sapiens (Human)), Q9C0E4; assay: G' assay; also: key of the grades not given here
T5 chain: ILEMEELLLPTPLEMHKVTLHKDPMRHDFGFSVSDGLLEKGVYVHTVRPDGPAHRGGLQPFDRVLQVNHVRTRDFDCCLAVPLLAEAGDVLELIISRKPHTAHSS

[6] = target: GST-KIAA807 [GST: P08515]; assay: G' assay; also: key of the grades not given here
Chain of GST-KIAA807 [GST: P08515] (P08515 whole entry, the tested form may be a part): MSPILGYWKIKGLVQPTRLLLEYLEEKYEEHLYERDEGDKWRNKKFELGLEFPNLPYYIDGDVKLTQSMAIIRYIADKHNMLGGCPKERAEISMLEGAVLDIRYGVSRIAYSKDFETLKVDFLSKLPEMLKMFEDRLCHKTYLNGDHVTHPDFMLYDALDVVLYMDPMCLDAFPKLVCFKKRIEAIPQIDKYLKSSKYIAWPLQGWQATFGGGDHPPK

[7] = target: T6, GST-MINT1 PDZ domain 2 (Mus musculus (Mouse)), B2RUJ5; assay: G' assay; also: key of the grades not given here
T6 chain: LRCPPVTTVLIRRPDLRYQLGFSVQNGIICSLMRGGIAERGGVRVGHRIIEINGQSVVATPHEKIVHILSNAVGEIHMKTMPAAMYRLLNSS

[8] = target: T7, GST-MINT1 PDZ domains 1, 2, Q02410; assay: G' assay; also: key of the grades not given here
T7 chain: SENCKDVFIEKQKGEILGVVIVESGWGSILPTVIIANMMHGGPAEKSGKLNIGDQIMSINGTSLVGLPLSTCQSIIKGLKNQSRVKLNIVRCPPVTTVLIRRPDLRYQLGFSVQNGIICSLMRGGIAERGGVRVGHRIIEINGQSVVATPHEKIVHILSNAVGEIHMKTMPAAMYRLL

[9] = target: T8, GST-Shank 1 PDZ domain 1 (Homo sapiens (Human)), Q9UPX8; assay: G' assay; also: key of the grades not given here
T8 chain: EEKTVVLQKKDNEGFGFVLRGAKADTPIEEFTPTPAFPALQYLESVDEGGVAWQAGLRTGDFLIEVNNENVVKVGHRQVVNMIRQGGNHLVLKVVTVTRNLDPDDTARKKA

[10] = target: T9, GST-AIPC PDZ domain 1 (Homo sapiens (Human)), O15018; assay: G' assay; also: key of the grades not given here
T9 chain: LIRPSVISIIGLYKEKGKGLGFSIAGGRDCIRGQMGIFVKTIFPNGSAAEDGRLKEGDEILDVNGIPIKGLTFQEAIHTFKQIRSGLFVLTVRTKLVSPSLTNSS

[11] = target: GST-BAI-1 Associated Protein PDZ domain 5 (Homo sapiens (Human)), Q96QZ7; assay: G' assay; also: key of the grades not given here
Chain of GST-BAI-1 Associated Protein PDZ domain 5 (Homo sapiens (Human)), Q96QZ7 (Q96QZ7 988-1099): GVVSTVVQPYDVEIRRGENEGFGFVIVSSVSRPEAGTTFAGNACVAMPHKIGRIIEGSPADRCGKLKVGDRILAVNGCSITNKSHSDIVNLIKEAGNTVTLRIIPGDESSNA

[12] = target: T10, GST-DLG1 PDZ domain 2 (Homo sapiens), Q12959; assay: G' assay; also: key of the grades not given here
T10 chain: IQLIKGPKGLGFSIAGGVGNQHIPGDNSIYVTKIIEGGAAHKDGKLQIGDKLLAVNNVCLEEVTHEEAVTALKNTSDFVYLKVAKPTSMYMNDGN

[13] = target: GST-DLG1 PDZ domains 1, 2 (Homo sapiens), Q12959; assay: G' assay; also: key of the grades not given here
[14] = target: T11, GST-DLG2 PDZ domain 2 (Homo sapiens (Human)), Q15700; assay: G' assay; also: key of the grades not given here
T11 chain: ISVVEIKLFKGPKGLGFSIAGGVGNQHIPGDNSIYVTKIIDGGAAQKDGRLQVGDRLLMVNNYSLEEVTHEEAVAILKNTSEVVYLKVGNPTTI

[15] = target: T12, GST-FLJ 10324 PDZ domain 1 [GST: P08515]; assay: G' assay; also: key of the grades not given here
T12 chain: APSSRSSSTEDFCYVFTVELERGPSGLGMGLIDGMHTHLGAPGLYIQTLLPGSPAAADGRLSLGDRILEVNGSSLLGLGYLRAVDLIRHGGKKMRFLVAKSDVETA

[16] = target: GST-KIAA1634 PDZ domain 1 (Homo sapiens (Human)), Q5TCQ9; assay: G' assay; also: key of the grades not given here
Chain of GST-KIAA1634 PDZ domain 1 (Homo sapiens (Human)), Q5TCQ9 (Q5TCQ9 401-502): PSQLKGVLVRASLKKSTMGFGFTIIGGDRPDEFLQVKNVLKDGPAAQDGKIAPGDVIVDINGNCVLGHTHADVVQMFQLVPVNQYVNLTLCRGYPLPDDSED

[17] = target: T13, GST-KIAA1634 PDZ domain 2 (Homo sapiens (Human)), Q5TCQ9; assay: G' assay; also: key of the grades not given here
T13 chain: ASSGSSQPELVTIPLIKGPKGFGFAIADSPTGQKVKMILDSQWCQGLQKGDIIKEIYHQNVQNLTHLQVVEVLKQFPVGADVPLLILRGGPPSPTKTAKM

[18] = target: GST-KIAA1634 PDZ domain 4 (Homo sapiens (Human)), Q5TCQ9; assay: G' assay; also: key of the grades not given here
Chain of GST-KIAA1634 PDZ domain 4 (Homo sapiens (Human)), Q5TCQ9 (Q5TCQ9 844-945): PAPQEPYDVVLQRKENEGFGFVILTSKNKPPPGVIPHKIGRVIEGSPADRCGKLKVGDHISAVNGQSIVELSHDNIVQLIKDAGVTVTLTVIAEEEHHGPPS

[19] = target: T14, GST-NeDLG PDZ domains 1, 2, Q92796; assay: G' assay; also: key of the grades not given here
T14 chain: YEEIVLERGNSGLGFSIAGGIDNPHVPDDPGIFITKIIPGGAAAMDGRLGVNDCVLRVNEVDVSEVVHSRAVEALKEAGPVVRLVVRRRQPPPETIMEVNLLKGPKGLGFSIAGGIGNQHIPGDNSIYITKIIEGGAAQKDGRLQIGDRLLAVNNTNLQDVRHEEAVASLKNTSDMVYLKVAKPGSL

[20] = target: T15, GST-Outer Membrane PDZ domain 1 (Homo sapiens (Human)), P57105; assay: G' assay; also: key of the grades not given here
T15 chain: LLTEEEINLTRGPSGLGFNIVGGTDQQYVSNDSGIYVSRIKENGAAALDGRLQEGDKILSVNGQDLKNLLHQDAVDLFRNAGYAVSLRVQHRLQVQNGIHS

[21] = target: GST-PSD95 PDZ domains 1, 2, 3 (Homo sapiens), P78352; assay: G' assay; also: key of the grades not given here
Chain of GST-PSD95 PDZ domains 1, 2, 3 (Homo sapiens), P78352 (P78352 62-395): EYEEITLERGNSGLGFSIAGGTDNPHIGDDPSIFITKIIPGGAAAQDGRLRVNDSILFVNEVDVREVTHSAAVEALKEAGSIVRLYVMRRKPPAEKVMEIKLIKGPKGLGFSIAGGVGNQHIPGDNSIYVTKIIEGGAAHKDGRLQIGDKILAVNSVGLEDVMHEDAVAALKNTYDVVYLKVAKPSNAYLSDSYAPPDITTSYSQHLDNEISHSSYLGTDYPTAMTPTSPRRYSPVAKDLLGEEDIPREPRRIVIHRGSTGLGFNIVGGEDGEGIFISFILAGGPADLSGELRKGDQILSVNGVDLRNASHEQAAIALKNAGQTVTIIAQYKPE

[22] = target: T16, GST-PTPL1 PDZ domain 2 (Homo sapiens (Human)), Q12923; assay: G' assay; also: key of the grades not given here
T16 chain: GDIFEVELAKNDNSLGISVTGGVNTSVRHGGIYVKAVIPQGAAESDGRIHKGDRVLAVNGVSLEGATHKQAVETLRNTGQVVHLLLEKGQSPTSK

[23] = target: T17, GST-PTPL1 PDZ domain 4 (Homo sapiens (Human)), Q12923; assay: G' assay; also: key of the grades not given here
T17 chain: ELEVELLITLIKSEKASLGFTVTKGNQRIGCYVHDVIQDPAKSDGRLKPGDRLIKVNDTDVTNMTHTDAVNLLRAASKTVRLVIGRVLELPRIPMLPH

[24] = target: GST-DLG1 PDZ domains 1, 2 (Homo sapiens), Q12959; assay: G assay titration, PDZ 0.3 ug/ml
[25] = target: T18, GST-TIP-1 (Example 3) (human), O14907; assay: G assay titration, PDZ 0.3 ug/ml
T18 chain: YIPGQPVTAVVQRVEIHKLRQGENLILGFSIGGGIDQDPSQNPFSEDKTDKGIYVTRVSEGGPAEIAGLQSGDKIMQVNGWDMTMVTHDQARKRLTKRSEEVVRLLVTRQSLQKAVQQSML

[26] = target: GST-BAI-1 Associated Protein PDZ domain 2 (Mus musculus (Mouse)), Q6RHR9; assay: G' assay; also: key of the grades not given here
Chain of GST-BAI-1 Associated Protein PDZ domain 2 (Mus musculus (Mouse)), Q6RHR9 (Q6RHR9 455-558): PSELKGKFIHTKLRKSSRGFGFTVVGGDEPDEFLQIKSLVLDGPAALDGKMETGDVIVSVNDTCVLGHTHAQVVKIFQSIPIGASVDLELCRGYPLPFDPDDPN

[27] = target: GST-BAI-1 Associated Protein PDZ domain 6 (Homo sapiens (Human)), Q96QZ7; assay: G' assay; also: key of the grades not given here
Chain of GST-BAI-1 Associated Protein PDZ domain 6 (Homo sapiens (Human)), Q96QZ7 (Q96QZ7 1143-1233): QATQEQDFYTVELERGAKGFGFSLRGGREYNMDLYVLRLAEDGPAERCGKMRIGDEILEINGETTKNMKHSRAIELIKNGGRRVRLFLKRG

[28] = target: T19, GST-KIAA0380 PDZ domain 1 (Homo sapiens (Human)), O15085; assay: G' assay; also: key of the grades not given here
T19 chain: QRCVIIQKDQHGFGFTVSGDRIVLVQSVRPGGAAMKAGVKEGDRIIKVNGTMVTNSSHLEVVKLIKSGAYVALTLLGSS

[29] = target: GST-KIAA1634 PDZ domain 5 (Homo sapiens (Human)), Q5TCQ9; assay: G' assay; also: key of the grades not given here
Chain of GST-KIAA1634 PDZ domain 5 (Homo sapiens (Human)), Q5TCQ9 (Q5TCQ9 other isoform, or with tags, fused parts or gaps): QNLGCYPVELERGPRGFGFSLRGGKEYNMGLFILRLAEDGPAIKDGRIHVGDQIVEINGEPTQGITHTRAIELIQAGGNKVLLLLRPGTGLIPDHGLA

[30] = target: T20, GST-MUPP1 PDZ domain 13 (Homo sapiens (Human)), O75970; assay: G' assay; also: key of the grades not given here
T20 chain: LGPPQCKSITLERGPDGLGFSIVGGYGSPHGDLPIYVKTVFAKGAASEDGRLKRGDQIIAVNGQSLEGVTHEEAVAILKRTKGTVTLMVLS

[31] = target: T21, GST-PDZK1 PDZ domains 2, 3, 4, Q5T2W1; assay: G' assay; also: key of the grades not given here
T21 chain: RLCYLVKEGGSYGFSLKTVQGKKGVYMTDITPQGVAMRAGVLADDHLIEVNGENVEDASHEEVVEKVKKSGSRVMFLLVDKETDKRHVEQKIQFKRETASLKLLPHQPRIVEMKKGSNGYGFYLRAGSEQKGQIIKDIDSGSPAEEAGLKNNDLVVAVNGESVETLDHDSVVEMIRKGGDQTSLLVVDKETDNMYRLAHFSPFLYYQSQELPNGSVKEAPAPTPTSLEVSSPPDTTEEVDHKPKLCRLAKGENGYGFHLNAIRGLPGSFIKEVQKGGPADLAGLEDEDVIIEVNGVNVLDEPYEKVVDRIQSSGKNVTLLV

[32] = target: T22, GST-Syntrophin 1 alpha PDZ domain 1 (Homo sapiens (Human)), Q13424; assay: G' assay; also: key of the grades not given here
T22 chain: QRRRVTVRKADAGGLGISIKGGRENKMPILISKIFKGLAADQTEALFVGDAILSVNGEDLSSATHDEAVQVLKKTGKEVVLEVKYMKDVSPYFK

[33] = target: T23, GST-TIP1 PDZ domain 1 (Table 9 insert) (Homo sapiens (Human)), O14907; assay: G' assay; also: key of the grades not given here
T23 chain: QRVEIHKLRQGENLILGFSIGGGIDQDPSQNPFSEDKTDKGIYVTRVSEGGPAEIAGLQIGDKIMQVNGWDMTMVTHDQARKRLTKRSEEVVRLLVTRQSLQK

[34] = target: T24, GST-novel PDZ gene PDZ domain 2 (Homo sapiens (Human)), Q9H5P4; assay: G' assay; also: key of the grades not given here
T24 chain: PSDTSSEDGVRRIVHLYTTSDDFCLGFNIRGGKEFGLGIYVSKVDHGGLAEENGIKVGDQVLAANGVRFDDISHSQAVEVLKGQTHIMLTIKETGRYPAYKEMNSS

LNETTETQRTLLNGDLQTSI (modifications not checked) [SSTR2 (somatostatin recepor 2)]
Classification [1]: 1 A450 class
Classification [2]: 1 A450 class
Classification [3]: 2 A450 class
Classification [4]: 1 A450 class
Classification [5]: 1 A450 class
Classification [6]: 2 A450 class
Classification [7]: 1 A450 class
Classification [8]: 1 A450 class
Classification [9]: 1 A450 class

KDITSDSENSNFRNEIQSLV (modifications not checked) [CD95]
Classification [10]: 1 A450 class
Classification [11]: 3 A450 class
Classification [12]: 1 A450 class
Classification [13]: 2 A450 class
Classification [14]: 1 A450 class
Classification [15]: 1 A450 class
Classification [16]: 1 A450 class
Classification [17]: 1 A450 class
Classification [18]: 1 A450 class
Classification [19]: 1 A450 class
Classification [20]: 1 A450 class
Classification [21]: 1 A450 class
Classification [22]: 3 A450 class
Classification [23]: 1 A450 class
Kd [24]: 15 µM and 20 µM
maximum OD (450 nm) [24]: 2.6 OD and 2.1 OD
Kd [25]: 20 µM and 25 µM
maximum OD (450 nm) [25]: 2.6 OD and 3.5 OD

ARHRVTSYTSSSVNVSSNL (modifications not checked) [IL-8RA]
Classification [26]: 1 A450 class
Classification [27]: 1 A450 class
Classification [28]: 1 A450 class
Classification [3]: 1 A450 class
Classification [16]: 1 A450 class
Classification [29]: 1 A450 class
Classification [30]: 1 A450 class
Classification [31]: 1 A450 class
Classification [21]: 1 A450 class
Classification [32]: 1 A450 class
Classification [33]: 1 A450 class
Classification [34]: 1 A450 class
